Experimental data published in patent publication US7083777B1, “Immunomodulating polymers” (priority 1999, dated 2006).

Experiments:
[1] = 0.01% solution of about 1500 kDa HA; model normally produces more than 70% adhesions; cited from earlier work
human T cells = assay type: cell-based; settings: 20 μg/ml, 6 days post-incubation
B. fragilis [2] = assay: Rat model of intraabdominal sepsis, abscess formation after B. fragilis challenge; assay type: in vivo; settings: 50 μg dose
B. fragilis [3] = assay: Protection against abscess formation by recombinant cytokine given intracardially at challenge; assay type: in vivo, rat; settings: 100 pg intracardiac at time of challenge, 10^8 cfu B. fragilis; Experiment A
B. fragilis [4] = assay: IL-10-mediated protection against abscess formation; assay type: in vivo, rat
Procedure: In order to examine further the role of IL-10 in the abscess model, male Wistar rats (150 g) were treated with recombinant IL-10, anti-IL-10, or isotype antibody control beginning on the day of challenge with 1×10^8 cfu B. fragilils. Further comparison was made using a group treated with Streptococcus pneumoniae type I CP alone or together with anti-IL-10. Animals were sacrificed and examined six days after challenge.

[5] = 0.2 μg i.p. at 0, 24, 48 and 72 hours relative to challenge

hyaluronic acid [HA]
prevention of severe intra-abdominal adhesions (in words) [1]: effectively prevents all severe intra-abdominal adhesions

poly-L-lysine
T cell activation (in words) (human T cells): did not stimulate T cell proliferation
Protection against abscess formation vs saline (in words) (B. fragilis [2]): did not protect against abscess formation

B1: IL-4: interleukin 4 given at 100 pg as comparison (protein, UniProt P05112 25-153, looked up)
Interleukin-4: HKCDITLQEIIKTLNSLTEQKTLCTELTVTDIFAASKNTTEKETFCRAATVLRQFYSHHEKDTRCLGATAQQFHRHKQLIRFLKRLDRNLWGLAGLNSCPVKEANQSTLENFLERLKTIMREKYSKCSS
Abscess formation (%) (B. fragilis [3]): 75%

B2: recombinant IL-10: recombinant interleukin-10 (protein, UniProt P22301 19-178, looked up)
Interleukin-10: SPGQGTQSENSCTHFPGNLPNMLRDLRDAFSRVKTFFQMKDQLDNLLLKESLLEDFKGYLGCQALSEMIQFYLEEVMPQAENQDPDIKAHVNSLGENLKTLRLRLRRCHRFLPCENKSKAVEQVKNAFNKLQEKGIYKAMSEFDIFINYIEAYMTMKIRN
Protection against abscess formation vs isotype control antibody (in words) (B. fragilis [4]; 0.2 μg i.p.): protected from abscess formation
Abscess formation (%) (B. fragilis [4]; [5]): 13%
No. animals with abscess/total (B. fragilis [4]; [5]): 2/16
